From publication PMC6548343

Target: Nucleosomes (Nuc207) with 30 bp linker DNA at both ends
Assay: EM 3D reconstruction of the assembled complex; ~30 μg/ml actin/Arp module with a 10-fold molar excess of Nuc207, 2 h at 4°C, 20 mM HEPES pH 8.0, 40 mM KOAc, 5 mM MgCl2, no ATP; two binding states

stoichiometry N: 1
Substance: INO80 N-terminal subcomplex (N.com) (from UniProt P53115 356-691; P60010 1-375; P80428 1-489; Q12386 1-881; P35189 1-244; Q08561 1-116)
